The values below come from US20260265390A1 (SHANDONG SIMCERE BIOPHARMACEUTICAL, published 2026).

The target of experiment [1] is T1, monkey CD3, on activated monkey PBMC (monkey).
T1 construct: whole, on cells
The experiment in a line: FACS, activated monkey PBMC.

The target in experiment [2] is T2, human CD3, endogenous on Jurkat cells and on activated human PBMC (human, UniProt P07766 23-207; P04234 22-171).
T2 construct: whole, on cells; CD3 complex as it stands on T cells
Kind of experiment: FACS, Jurkat cells.

For experiment [3], the target named is T3, human BCMA (B cell maturation antigen), expressed on cells (human, UniProt Q02223 1-184).
T3 construct: whole, on cells; Overexpressed on Flp-in CHO cells; also called Flp-inCHO-human BCMA cells; CD269
T3 sequence (looked up): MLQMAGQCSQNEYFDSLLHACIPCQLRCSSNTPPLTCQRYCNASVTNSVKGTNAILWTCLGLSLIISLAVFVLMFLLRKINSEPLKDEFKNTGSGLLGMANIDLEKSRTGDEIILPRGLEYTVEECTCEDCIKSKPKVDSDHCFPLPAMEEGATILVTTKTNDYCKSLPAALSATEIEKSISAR
The experiment in a line: FACS, Flp-inCHO-human BCMA cells. Here is the method: (§1) Flp-inCHO-human BCMA cells and CHOK1-human GPRC5D cells were scale-up cultured in T-75 cell culture flask to the logarithmic growth phase, respectively, and the cells were pipetted to obtain a single cell suspension. After the cells were counted and centrifuged, the cell precipitate was resuspended to 2×10⁶ cells per milliliter with a FACS buffer (PBS+2% fetal bovine serum). The suspension was added to a 96-well FACS reaction plate at 50 μl/well. 8 concentrations of the anti-BCMA-GPRC5D-CD3 antibodies or control antibodies were added at 50 μl/well, wherein gradient dilution was performed at a dilution ratio of 5 from a concentration of 100 nM. The cells were incubated at 4° C. for 1 h. The obtained mixture was centrifuged and washed 3 times with a PBS buffer. […] The obtained mixture was centrifuged and washed 3 times with a PBS buffer. 100 μl of the mixture was taken for detection and result analysis by FACS (FACS Canto™, purchased from BD Company). Data analysis was performed by software (FlowJo) to obtain the mean fluorescence intensity (MFI) of the cells. Then, a software (GraphPad Prism8) was used for analysis, data fitting and EC50 calculation.

Experiment [4] has as its target T2, human CD3, endogenous on Jurkat cells …. The experiment in a line: FACS, activated human PBMC.
The target in experiment [5] is T4, human GPRC5D, expressed on cells (human, UniProt Q9NZD1 1-345).
T4 construct: whole, on cells; Overexpressed on CHOK1 cells; also called CHOK1-human GPRC5D cells
Kind of experiment: FACS, CHOK1-human GPRC5D cells. Here is the method:
as §1

Numbering of substitutions follows the chain as printed.

T1 sequence (Q95LI5 22-198): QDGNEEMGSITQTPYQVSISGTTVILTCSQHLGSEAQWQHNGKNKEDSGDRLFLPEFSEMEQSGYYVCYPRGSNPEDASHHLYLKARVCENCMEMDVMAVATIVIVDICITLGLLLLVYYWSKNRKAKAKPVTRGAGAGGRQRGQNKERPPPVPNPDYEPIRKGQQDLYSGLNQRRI
T2 sequence (P07766 23-207, chain 1 of 2): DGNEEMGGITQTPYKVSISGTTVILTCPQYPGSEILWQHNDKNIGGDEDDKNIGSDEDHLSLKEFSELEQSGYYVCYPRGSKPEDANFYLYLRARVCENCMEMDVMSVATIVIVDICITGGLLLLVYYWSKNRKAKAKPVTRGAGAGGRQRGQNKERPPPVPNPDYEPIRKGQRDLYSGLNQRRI
T2 sequence (P04234 22-171, chain 2 of 2): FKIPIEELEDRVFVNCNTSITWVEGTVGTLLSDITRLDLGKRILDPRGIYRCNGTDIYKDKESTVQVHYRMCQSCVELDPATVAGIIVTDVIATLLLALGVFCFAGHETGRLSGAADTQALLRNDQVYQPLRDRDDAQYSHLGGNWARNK
T4 sequence (Q9NZD1 whole entry): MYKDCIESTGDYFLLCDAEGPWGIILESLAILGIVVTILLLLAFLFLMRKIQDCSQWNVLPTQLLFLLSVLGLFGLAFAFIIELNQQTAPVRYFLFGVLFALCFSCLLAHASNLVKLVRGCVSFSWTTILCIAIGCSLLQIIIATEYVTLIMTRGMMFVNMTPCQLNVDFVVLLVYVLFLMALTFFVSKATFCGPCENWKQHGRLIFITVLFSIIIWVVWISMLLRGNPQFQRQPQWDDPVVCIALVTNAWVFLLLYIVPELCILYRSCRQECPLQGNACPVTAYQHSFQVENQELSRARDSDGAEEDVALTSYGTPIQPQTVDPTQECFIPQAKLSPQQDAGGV

B1: Tri-62 anti-BCMA-GPRC5D-CD3 trispecific antibody (other)
VH 1: EGQMVQSGAEVKKPGSSVKVSCKASGYMFTDHTFHWVRQAPGQGLEWMGYIYPRDQNTKYNEKFKGRVTITADKSTSTAYMELSSLRSEDTAVYYCARAGYYGSSHAMDYWGQGTTVTVSS
VL 1: DIQMTQSPSSLSASVGDRVTITCKASQDVSTAVAWYQQKPGKSPRLLIYSASSRYTGVPSRFSGSGSGTDFTFTISSLQPEDIATYYCQQLYSTPWTFGGGTKVEIK
VH 2: EVQLVQSGAEVKKPGSSVKVSCKASGYTFTSYGISWVRQAPGQGLEWMGEIYPRSGNTYYNEKFKGRVTLTADKSTSTAYMELSSLRSEDTAVYYCARGRAYGRNYPMDYWGQGTTVTVSS
VL 2: EIVLTQSPATLSLSPGERATLSCRASQSIGTSIHWYQQKPGQSPRLLIKYASESISGIPARFSGSGSGTDFTLTISSLEPEDFAVYYCQQSNSWPYTFGGGTKVEIK
VH 3: EVQLVESGGGVVQPGRSLRLSCAASGFTFTDYYMSWVRQAPGKGLEWVAMSRNKAKGHTIEYSSSVKGRFTISRDNSKNTLYLQMNSLRAEDTAVYYCARDTYESYDGYFDVWGQGTTVTVSS
VL 3: DIVMTQSPDSLAVSLGERATINCKSSQSLFNSRSRKNYLAWYQQKPGQTPKLLIYWASIRESGVPDRFSGSGSGTDFTLTISSLQAEDVAVYYCKQSYYLYTFGQGTKLEIK
chain 1: ESKYGPPCPPCPAPEAAGGPSVFLFPPKPKDTLMISRTPEVTCVVVDVSQEDPEVQFNWYVDGVEVHNAKTKPREEQFNSTYRVVSVLTVLHQDWLNGKEYKCKVSNKGLPSSIEKTISKAKGQPREPQVYTLPPSQEEMTKNQVSLWCLVKGFYPSDIAVEWESNGQPENNYKTTPPVLDSDGSFFLYSRLTVDKSRWQEGNVFSCSVMHEALHNHYTQKSLSLSLG
chain 2: B1 chain 1 with W148S, L150A, Y189V
notes: Trispecific antibody; Asymmetric (purification method B)
On to B1, for which the EC50 worked out at 85.5 nM in experiment [1], 14.5 nM in experiment [3] and 0.4 nM in experiment [5]. The “Maximum mean fluorescence intensity” value in experiment [1] came out at 740; in experiment [2], 462; in experiment [4] it was 452.

B2: Tri-41 anti-BCMA-GPRC5D-CD3 trispecific antibody (other)
VHH: EVQLVESGGGLVQPGGSLRLSCSASGFTLDYYMIGWFRQAPGKEREGLSSISPADGSTYYADSVKGRFTISRDSSKNTVYLQMNSLRAEDTAVYYCAAGNEATISWGFGPWEYDYWGQGTMVTVSS
VH 1: B1 VH 2
VL 1: B1 VL 2
VH 2: B1 VH 3
VL 2: B1 VL 3
chain 1: EPKSSDKTHTCPPCPAPEAAGGPSVFLFPPKPKDTLMISRTPEVTCVVVDVSHEDPEVKFNWYVDGVEVHNAKTKPREEQYNSTYRVVSVLTVLHQDWLNGKEYKCKVSNKALPAPIEKTISKAKGQPREPQVYTLPPSREEMTKNQVSLWCLVKGFYPSDIAVEWESNGQPENNYKTTPPVLDSDGSFFLYSKLTVDKSRWQQGNVFSCSVMHEALHNHYTQKSLSLSPG
chain 2: B2 chain 1 with W151S, L153A, Y192V
notes: as for B1
Turning to B2, the EC50 in experiment [3] stood at 1.52 nM; in experiment [5] it was 4.3 nM.

B3: Tri-49 anti-BCMA-GPRC5D-CD3 trispecific antibody (other)
VHH: EVQLVESGGGLVQPGGSLRLSCAASESISSIHIMAWYRQAPGKQRELVAGIRNDGSTVYVDSVKGRFTISRDNAKNSLYLQMNSLRAEDTAVYYCNADQGFGSYSEWERRSRWGQGTTVTVSS
VH 1: B1 VH 2
VL 1: B1 VL 2
VH 2: B1 VH 3
VL 2: B1 VL 3
chain 1: B1 chain 1
chain 2: B1 chain 1 with W148S, L150A, Y189V
notes: as for B1
In the case of B3, the values for the EC50 in experiment [1], in experiment [2] and in experiment [4] were 59.4 nM, 157 nM and 31.8 nM, respectively.
